Assay results from patent US20040235112A1.

Biological target: JNKK (UniProt P45985)
Assay: cell-based or functional assay

JNKK, sequence (P45985 whole entry): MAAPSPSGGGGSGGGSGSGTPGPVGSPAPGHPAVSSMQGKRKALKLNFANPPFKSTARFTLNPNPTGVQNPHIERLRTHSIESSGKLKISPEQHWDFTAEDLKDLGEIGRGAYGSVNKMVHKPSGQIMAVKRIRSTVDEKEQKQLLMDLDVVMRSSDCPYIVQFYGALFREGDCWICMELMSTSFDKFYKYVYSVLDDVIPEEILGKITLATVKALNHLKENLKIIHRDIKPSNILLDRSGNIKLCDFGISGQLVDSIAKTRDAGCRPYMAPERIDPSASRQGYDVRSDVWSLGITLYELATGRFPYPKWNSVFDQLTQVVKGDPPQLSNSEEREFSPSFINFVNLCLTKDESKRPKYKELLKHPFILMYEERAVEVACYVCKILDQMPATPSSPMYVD

MEKK (enzyme)
JNKK activation in COS cells cotransfected with MEKK expression vector (immune complex kinase assay with GST-JNK2) (ng expression vector): 125
